For assay [1], the target named is T1, soluble human CD73 (Homo sapiens, UniProt P21589).
T1 construct: The ectodomain of CD73 (aa 27-549) was expressed as a recombinant protein with a C-terminal His6× tag; His6 (C); made in house; host or cells: transiently transfected HEK cells
T1 sequence (P21589 27-549): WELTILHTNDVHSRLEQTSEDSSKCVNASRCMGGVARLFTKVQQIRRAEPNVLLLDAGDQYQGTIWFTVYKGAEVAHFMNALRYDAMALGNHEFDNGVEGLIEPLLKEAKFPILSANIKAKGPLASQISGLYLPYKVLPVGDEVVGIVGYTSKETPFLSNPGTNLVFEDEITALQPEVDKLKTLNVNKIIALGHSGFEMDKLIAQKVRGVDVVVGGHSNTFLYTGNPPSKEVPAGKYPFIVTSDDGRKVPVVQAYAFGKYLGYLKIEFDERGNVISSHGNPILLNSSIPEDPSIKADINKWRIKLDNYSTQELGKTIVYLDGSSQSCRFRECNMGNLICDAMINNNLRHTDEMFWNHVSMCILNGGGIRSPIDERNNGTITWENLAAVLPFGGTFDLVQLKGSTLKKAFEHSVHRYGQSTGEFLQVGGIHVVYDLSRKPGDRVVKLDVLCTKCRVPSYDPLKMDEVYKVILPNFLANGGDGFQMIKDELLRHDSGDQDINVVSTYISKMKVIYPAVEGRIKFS
As to the kind of experiment: Off-rates of soluble CD73 from immobilized Nb-rbIgG hcAb on Octet BLI. The format is binding. Conditions: soluble human CD73 ectodomain 200 ng/μl as analyte; Nb-rbIgG hcAb immobilized on protein A biosensor. The protocol:
The binding off-rate constants of bivalent hcAbs to human and mouse CD73 protein were determined by […] kinetic analysis on Octet RED96 (ForteBio). Immobilization of rabbit IgG hcAbs on the protein A-biosensor surface was done in HEK-6E cell supernatant, and regeneration of analytes was done with 100 mM Glycin pH=2.5. Recombinant mouse or human CD73 ectodomain was used as analytes and tested at a saturating dose of 200 ng/μl. Sensorgrams were fitted using least square regression in association than dissociation Model in Prism8 (Graphpad).
(In general: Biolayer interferometry detects binding as a change in optical thickness at a sensor tip.)

Another assay concerns the target T2, human CD73 (Homo sapiens, UniProt P21589).
T2 construct: expressed in transfected cells; stably transfected in method 5.1)
T2 sequence (P21589 27-549): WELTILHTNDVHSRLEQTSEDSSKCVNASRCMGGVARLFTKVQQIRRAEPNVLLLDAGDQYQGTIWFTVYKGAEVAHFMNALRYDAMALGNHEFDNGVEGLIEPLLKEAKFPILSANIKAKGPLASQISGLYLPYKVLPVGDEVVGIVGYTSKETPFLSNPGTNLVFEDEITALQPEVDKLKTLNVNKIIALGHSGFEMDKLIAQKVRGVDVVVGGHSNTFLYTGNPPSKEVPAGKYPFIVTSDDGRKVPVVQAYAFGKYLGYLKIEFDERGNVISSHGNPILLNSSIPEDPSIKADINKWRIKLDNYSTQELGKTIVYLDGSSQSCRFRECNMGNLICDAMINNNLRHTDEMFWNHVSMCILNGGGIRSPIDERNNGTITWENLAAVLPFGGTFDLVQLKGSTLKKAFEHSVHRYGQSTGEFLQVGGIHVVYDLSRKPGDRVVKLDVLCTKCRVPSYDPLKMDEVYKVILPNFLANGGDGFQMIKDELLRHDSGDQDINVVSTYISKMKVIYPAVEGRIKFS
As to the kind of experiment: Flow cytometry binding of rabbit IgG hcAbs to human CD73-transfected HEK cells. As to conditions: family representative clone; h = binds human CD73, m = binds mouse CD73. On the procedure:
HEK cells were co-transfected with expression vectors for green fluorescent protein (GFP) and human CD73, mouse CD73, and a control cell surface protein (CD39). 48 h after transfection, cells were incubated with HEK cell supernatants containing the indicated rabbit IgG hcAbs. Bound antibodies were detected with PE-conjugated anti rabbit IgG secondary antibody.
(§1) • 5.1 Untransfected HEK293 cells and HEK293 cells stably transfected with human or mouse CD73 were incubated for 30 min with HEK-6E cell supernatants containing rabbit IgG hcAbs (diluted 1:10 in PBS/0.1% BSA). Following washing with PBS/0.1% BSA, bound antibodies were detected with PE-conjugated goat anti-rabbit IgG polyclonal antibody (711-116-152 Dianova, Hamburg). • 5.2 For dissociation analyses, two separate aliquots of CD73-transfected cells were incubated either with Cell Proliferation Dye eFluor 450 (eBioscience) or with hcAbs for 20 min at RT. Cells were washed four times, mixed at a 1:1 ratio and further incubated at RT for 120 min before staining of bound antibodies with PE-conjugated goat anti-rabbit IgG polyclonal antibody. The dissociation of hcAbs from the target cells and association with the eFluor 450 labeled cells was analyzed by flow cytometry using the FlowJo software (Treestar). • 5.3 For epitope analyses, cells were preincubated with excess human IgG hcAbs (10 μl HEK-6E cell supernatant/100 μl PBS/0.1% BSA) for 30 min at RT before addition of Nb-rabbit IgG hcAbs (1 μl HEK-6E cell supernatant/100 μl PBS/0.1% BSA) and further incubation for 20 min at RT and staining with PE-conjugated anti-rabbit polyclonal antibody (711-116-152 Dianova, Hamburg). Cells were washed and analyzed by flow cytometry on a BD-FACS Canto. Data were analyzed using the FlowJo software (Treestar).
The binding specificities of the purified hcAbs were determined by flow cytometry using HEK cells transiently co-transfected with expression vectors for GFP and either mouse CD73, human CD73 or a control protein (CD39). 1×10^6 cells were incubated with 10 μl of the Nb-rbIgG hcAb containing HEK-6E cell supernatants for 30 min at 4° C. After washing, the cells were incubated with PE-conjugated anti-rabbit IgG polyclonal antibody (711-116-152 Dianova, Hamburg) and washed twice. The cells were resuspended in PBS and analyzed by flow cytometry on FACS Canto or FACS Celesta (BD Biosciences, Heidelberg). Data evaluation was conducted using the software FlowJo (Treestar, Stanford, US).
(Flow cytometry measures light scatter and fluorescence of single cells or particles in a stream.)

In assay [2] the target is T3, human CD73-transfected HEK cells (Homo sapiens, UniProt P21589).
T3 construct: expressed in transfected cells; stably transfected in method 5.1)
T3 sequence (P21589 27-549): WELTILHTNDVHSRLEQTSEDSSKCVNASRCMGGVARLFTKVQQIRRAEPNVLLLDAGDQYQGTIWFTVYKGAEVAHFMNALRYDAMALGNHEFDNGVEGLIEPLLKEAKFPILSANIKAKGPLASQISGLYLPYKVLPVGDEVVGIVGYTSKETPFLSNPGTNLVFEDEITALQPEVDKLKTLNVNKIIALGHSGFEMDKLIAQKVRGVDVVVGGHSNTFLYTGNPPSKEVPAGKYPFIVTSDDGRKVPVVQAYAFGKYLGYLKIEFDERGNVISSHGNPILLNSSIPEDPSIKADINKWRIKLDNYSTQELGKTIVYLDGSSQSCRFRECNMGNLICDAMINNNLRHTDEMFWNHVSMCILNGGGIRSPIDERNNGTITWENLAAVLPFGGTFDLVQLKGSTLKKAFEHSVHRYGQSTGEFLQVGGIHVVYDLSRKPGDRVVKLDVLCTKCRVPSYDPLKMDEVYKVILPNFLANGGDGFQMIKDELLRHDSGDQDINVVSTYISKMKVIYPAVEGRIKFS
As to the kind of experiment: Epitope binning by flow cytometry (human IgG hcAb blocks rabbit IgG hcAb). Conditions: epitope assignment on human CD73 from binning. The format is binding. The protocol:
as §1
To evaluate the epitopes on the CD73 protein recognized by different VHHs, representative rabbit IgG hcAbs were binned against a set of human IgG hcAbs, and bound hcAbs were detected with a PE-conjugated anti-rabbit IgG secondary antibody. Cells were pre-incubated with excess human IgG hcAbs for […] at RT to block specific epitopes before addition of rabbit IgG hcAbs as detectors and further incubation for 15 min at RT. Cells were washed, and bound antibodies were detected with PE-conjugated anti-rabbit IgG polyclonal antibody. Cells were washed and analyzed by flow cytometry on a BD-FACS Canto. Data were analyzed using the FlowJo software (Treestar). Lack of blockade by a non-binding control human IgG hcAb served as negative control (unblocked), and blockade of binding with the same VHH carrying human IgG hcAb as the rabbit IgG hcAb used for detection served as positive controls for blocking. Values for blocking were determined by comparing the mean fluorescence intensities (MFIs) of PE staining of transfected cells for unblocked vs blocked rabbit hcAbs using the formula: inhibition (%)=100−(MFI (blocked)/MFI MFI(unblocked)*100). The values were rounded to whole percentages.

The target in assay [3] is T1, soluble human CD73. As to the kind of experiment: AMP hydrolysis by soluble CD73, DPEA-Napht-Azide fluorescence assay. In kind it is biochemical. As to conditions: 50 ng CD73, 30 min pre-incubation with 10 μl hcAb supernatant, 1 mM AMP. The protocol:
Recombinant human CD73 (50 ng) was pre-incubated for 30 min with hcAbs at RT in 96 well plates before addition of AMP and DPEA-Napht-Azide. Fluorescence signals were detected every 50 seconds for 30 repeats. ARFU values (>10^3/min) were calculated for a 10 min interval during the linear phase (from 5 min to 15 min) using Prism software (Graphpad). A non-specific rabbit IgG hcAb was used as control.
• 4.1 CD73 catalyzes the hydrolysis of AMP to adenosine. This reaction can be monitored by the shift in fluorescence intensity of DPEA-Napht-Azide. This property was used to determine whether hcAbs could interfere with the enzymatic activity of CD73. Soluble recombinant human CD73 (50 ng) was pre-incubated for 30 min with Nbs or hcAbs (10 μl HEK-6E cell supernatant containing 10-100 μg/ml hcAb) at RT in 96 well plates before addition of AMP (Sigma) to a final concentration of 1 mM and of DPEA-Napht-Azide to a final concentration of 50 μM. • 4.2 Fluorescence signals were recorded in white Nunc MicroWell plates (Nunc, 136101) on a Victor III plate reader (Perkin Elmer) (Exicitation filter: F485, Emission Filter: F535; CW-Lamp energy: 40000, counting time: 0.1 s). Data analyses were performed using Prism (Graphpad).
Soluble recombinant human CD73 (50 ng) was pre-incubated for 30 min with CD73-specific hcAbs or an irrelevant control hcAb (10 μl HEK-6E cell supernatant) at RT in 96 well plates before addition of AMP (Sigma) to a final concentration of 1 mM and of DPEA-Napht-Azide to a final concentration of 50 μM. Fluorescence signals were detected every 50 seconds for 30 repeats. Data analyses were performed using Prism (Graphpad).

From US20240417484A1, “ANTIGEN-BINDING POLYPEPTIDES AGAINST CD73” (UNIVERSITÄTSKLINIKUM HAMBURG-EPPENDORF, priority 2021, published 2024) come the findings set out here.

B1: SB139: CD73-specific alpaca VHH clone, family 6, SEQ ID NO:83; tested as rabbit or human IgG hcAb (antibody)
heavy: QVQLQESGGGLVQAGGSLRLSCAASENIFNIYGMGWYRQAPGKLRDLVAKITSGGRTTYADSVKGRFTISGDNAKNTVYLQMNSLKPEDTAVYYCNSYYYWGQGTQVTVSS
modifications: left off: a dimerising Fc or GST
notes: tested as rabbit or human IgG hcAb
In the assay with soluble human CD73 [1], B1 gave a Kdis of 0.046 s⁻¹. For the same molecule, in the assay with human CD73, the specificity entry was “h + m”.

B2: SB141: CD73-specific alpaca VHH clone, family 2 in Tables 2-3, SEQ ID NO:72; tested as rabbit or human IgG hcAb (antibody)
heavy: QVQLVESGGGLVQPGGSLRLSCAASGFTFINYHMSWLRQAPGKGLEWVSEIHSRGDITSYTNSVKGRFTISRDNAKNTLYLQMNSLKFDDTAVYYCARSRDLFNEGEYDYWGRGTQVTVSS
modifications: left off: a dimerising Fc or GST
notes: as for B1
For the molecule B2, in the assay with soluble human CD73 [1], the Kdis came to 0.00045 s⁻¹. In assay [2], this molecule registered an Epitope of 2. Moreover, the “effect on hydrolysis of AMP by soluble CD73” value in the assay with soluble human CD73 [3] is “did not”.

B3: SB116: CD73-specific alpaca VHH clone, family 3, SEQ ID NO:81; tested as rabbit or human IgG hcAb (antibody)
heavy: QVKLQESGGGRVQTGGSLRLSCAASGISFSITTMYWYRQAPGEQRQLVALITDRGNTYYVDSVKGRFTISRDDSKNTVYLQMNDLKPEDTAVYFCNSIPGNDWGQGTQVTVSS
modifications: left off: a dimerising Fc or GST
notes: as for B1
In the assay with soluble human CD73 [1], B3 displayed a Kdis of 0.00017 s⁻¹. Besides, in assay [2], the Epitope was determined as 1. Moreover, the specificity entry in the assay with human CD73 is “h + m”. In addition, the “effect on hydrolysis of AMP by soluble CD73” value with soluble human CD73 [3] was “effectively blocked hydrolysis of AMP”.
